Data as given in paper PMC3072108 (Cell, 2011).

Molecular target: ubiquitin (UniProt P0CG48 1-76)
Experiment: NMR titration

B1: UBC-domain of Ube2S (domain or fragment)
chain: MNSNVENLPPHIIRLVYKEVTTLTADPPDGIKVFPNEEDLTDLQVTIEGPEGTPYAGGLFRMKLLLGKDFPASPPKGYFLTKIFHPNVGANGEICVNVLKRDWTAELGIRHVLLTIKCLLIHPNPESALNEEAGRLLLENYEEYAARARLLTEIHG
Kd: 1110 ± 80 µM

B2: Ube2S (enzyme, UniProt Q16763 1-222, looked up)
chain: MNSNVENLPPHIIRLVYKEVTTLTADPPDGIKVFPNEEDLTDLQVTIEGPEGTPYAGGLFRMKLLLGKDFPASPPKGYFLTKIFHPNVGANGEICVNVLKRDWTAELGIRHVLLTIKCLLIHPNPESALNEEAGRLLLENYEEYAARARLLTEIHGGAGGPSGRAEAGRALASGTEASSTDPGAPGGPGGAEGPMAKKHAGERDKKLAAKKKTDKKRALRRL
Kd: 1700 ± 80 µM
